In publication PMC9750158:
pKd: −log10 of the molar value.

Tests used:
GST-Rac1^QP = GST-Rac1^QP (UniProt P63000); assay: pull-down
GST-Arf1 (Arf1^∆N17) = GST-Arf1 (Arf1^∆N17) (UniProt P84077); assay: pull-down
GST-Arf1 (Arf1^∆N17), sequence (P84077 18-181): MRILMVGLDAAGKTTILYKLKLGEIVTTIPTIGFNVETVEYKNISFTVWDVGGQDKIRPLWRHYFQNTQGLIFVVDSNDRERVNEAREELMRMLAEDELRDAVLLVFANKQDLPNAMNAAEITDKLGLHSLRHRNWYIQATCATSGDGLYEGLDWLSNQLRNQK

Row | Substance | pKd (GST-Rac1^QP) | pKd (GST-Arf1 (Arf1^∆N17))
1 | WRC with Sra1^Y967A (D site disrupted) (from UniProt Q7L576;Q9Y2A7;Q92558;Q9NYB9;Q8WUW1) (complex) | 5.70 | 
2 | ∆WRC230^D-Rac1 (Rac1 tethered to the C terminus of Sra1) (from UniProt Q7L576;Q9Y2A7;Q92558;Q9NYB9;Q8WUW1) (complex) |  | 5.27
